Test results taken from US20240350583A1, “COMPOSITION FOR PREVENTING OR TREATING FIBROTIC DISEASES, COMPRISING HAPLN1” (Chung Ang University Industry Academic Cooperation …, priority 2021, published 2024).

Assays:
[1] = tested on: bleomycin-induced pulmonary fibrosis; conditions: orally once daily, 14-day and 28-day groups; cited from earlier work
[2] = tested on: MyOF system (differentiated lung myofibroblasts); assay: BioMAP Fibrosis panel, MyoF system, ELISA; type: cell-based
Description: The anti-fibrotic action effect of the composition of the present disclosure on pulmonary fibrosis and kidney fibrosis was verified by examining the expression level of various fibrosis markers using the BioMAP Fibrosis Panel (provided by Eurofins discovery).
BioMAP Fibrosis panel consists of three models, SAEMyoF system (co-culturing small airway epithelial cells and adult fibroblasts), REMyOF system (co-culture of renal proximal tubule epithelial cells and adult fibroblasts), and MyOF system (differentiated lung myofibroblasts). Here, the SAEMyoF system represents interstitial lung diseases (IDL), including pulmonary fibrotic diseases such as idiopathic pulmonary fibrosis (IPF), and the REMyOF system represents kidney fibrosis disease, which is associated with end-stage renal failure. However, experiments were conducted to confirm the effect of the MyoF system only on myofibroblasts.
(1) Each primary cell was used by pooling cells from multiple donors (n=3 to 6), and cells were first cultured in 96-well plates to confluence before adding a peripheral blood mononuclear cell (PBMC).
(2) Subsequently, the cells were then each treated with the composition of the present disclosure (rhHAPLN1 protein content of 0, 3.7, 11, and 33 ng/ml) at different concentrations and cultured for 1 hour. […]
Each quantitative value was compared as a relative fold change compared to the vehicle control. […]

[3] = tested on: bleomycin-induced pulmonary fibrosis (BIPF); assay: Bleomycin-induced pulmonary fibrosis mouse model, treatment (inhalation from day 8); type: in vivo
Experimental: An experiment was conducted to verify the effect of ameliorating bleomycin-induced pulmonary fibrosis (BIPF) already developed by repeatedly administering the composition of the present disclosure by inhalation to animals with pulmonary fibrosis. Here, experimental results are presented that are basically similar to Example 12, but bleomycin-induced pulmonary fibrosis (BIPF) was sufficiently generated 7 days after bleomycin treatment, and that the composition of the present disclosure has the ability to treat fibrotic diseases.
To establish a bleomycin-induced pulmonary fibrosis (PF) model, 8-week to 10-week-old female C57BL/6N mice were used, and divided into 4 groups (Normal, PBS Control, 0.00075% (w/w) rhHAPLN1, 0.0015% (w/w) rhHAPLN1), with 4 mice per group, and the IPF disease induction method was referred to the paper by Liu et al. (Methods in Molecular Biology 2017, DOI: 10.1007/978-1-4939-7113-8_2) (see FIG. 13A). […]
Starting 8 days after bleomycin administration, the control was a mixture of 50 μl of a stock solution consisting of 20 mM Tris-HCl, 0.5 M NaCl, pH 8.0, 50% glycerol and 10 ml PBS (1×, pH 7.4, Gibco Co.) solution. […] The weight of each experimental animal was measured every 2 days to confirm that there was no change in weight, and a mass dosing system and aerosol chamber (Data Science International Co., Ltd.) were used to generate the fog. […]
Next, three tissue slides were prepared per mouse by cutting the middle portion of the left large lobe of the mouse, and three sections were photographed randomly on one slide, and then, for a total of nine sections, the stained darker part was distinguished from the unstained white part, and the area of the stained darker part was measured using Image J software, and each figure obtained was averaged to obtain an average value per mouse. […]

Molecule	level of TGFβ1 increased by bleomycin [1]	level of periostin increased by bleomycin [1]	expression level of collagen I (MyoF system, FIG. 11C), fold change compared to vehicle control ([2]; in proportion to rhHAPLN1 content (3.7, 11, 33 ng/ml))	expression level of collagen IV, fold change compared to vehicle control (FIG. 11C) ([2]; rhHAPLN1 33 ng/ml)	H&E lung tissue form (FIG. 13B) ([3]; rhHAPLN1 0.0015% (w/w))	reduction of average area of dark (fibrotic) lung area compared to pulmonary fibrosis without treatment (FIG. 13C) ([3]; rhHAPLN1 0.0015% (w/w), nebulized 1 hour once daily for 14 days from 8 days after bleomycin)	Ashcroft score evaluation (FIG. 13E) ([3]; rhHAPLN1 nebulized from 8 days after bleomycin)
Cc1ccc(=O)n(-c2ccccc2)c1 [pirfenidone, reference compound]	decreased	decreased	–	–	–	–	–
rhHAPLN1: recombinant human HAPLN1 protein of SEQ ID NO: 1 produced in CHO-K1 cells, stabilized in acetic acid buffer, sucrose, PS80, pH 5.0 (protein, listed as Homo sapiens) MKSLLLLVLISICWADHLSDNYTLDHDRAIHIQAENGPHLLVEAEQAKVFSHRGGNVTLPCKFYRDPTAFGSGIHKIRIKWTKLTSDYLKEVDVFVSMGYHKKTYGGYQGRVFLKGGSDSDASLVITDLTLEDYGRYKCEVIEGLEDDTVVVALDLQGVVFPYFPRLGRYNLNFHEAQQACLDQDAVIASFDQLYDAWRGGLDWCNAGWLSDGSVQYPITKPREPCGGQNTVPGVRNYGFWDKDKSRYDVFCFTSNFNGRFYYLIHPTKLTYDEAVQACLNDGAQIAKVGQIFAAWKILGYDRCDAGWLADGSVRYPISRPRRRCSPTEAAVRFVGFPDKKHKLYGVYCFRAYN	–	–	≤ 0.8 fold	0.7 fold	quite similar to that of the normal group	51%	excellent therapeutic effect
